Assay: soluble on expression in E. coli; label from the status in PepcDB or PDB records

| Sequence | soluble on expression in E. coli |
| --- | --- |
| MMHGGFAMIIDQYWGKYFGDSADSQRLAQYLAGKNREVLTTSEIFQDFQLAQLSGNYTQASLDGAGWHFDSAFQFVIDLAVLVLESKKVGRFSIARIGGPEDRFMRIDAATDELLPITMALKHYALAPEDYLFSHGIDVDDWYELGNLCEEIRAQLEA | not soluble |
| MMHISVGATEMSWLSSLKSVFSPSQEVKEDDVQTILQSYSLENSSFVLKDRITQINVEGRILQLTIKTFPEEADHLQQIHDELADALQKAGIQELNLHVIQQKTAPRTEPKSSSSTTSSSSHLPPVVDASASPTPDPNNPPIQKKAPIQSEVPAHPRIKNVILVSSGKGGVGKSTTTVNLALALQKQGLKVGVLDADIYGPSIPTMLGNAGRTPKIENENFVPLDAYGLAVLSIGHLTGDNNTPVAWRGPKATGALMQLFNQTLWPDLDVLVIDMPPGTGDIQLTLAQRIPVTGALIVTTPQNVALLDASKGIELFNRVGIPVVGVIENMSTHICSNCGFEEQIFGVGGGDKLSEQYDIPLLGRLPLNAQIRENADKGQPSVIAQDTAAESYQMIAQALWTRVEQLPQRARDDKRIFLEHHHHHH | not soluble |
| MMIDPELRPAFLPAGKLRAAINLGNPILAGTDAAGQAVGVSVDLAREFARRLNAGIELRVFDTAGQSVDAVTREEADIGFFAIDPARGAGIAFTGPYVLIEGAYLVRDDSPLQANEDVDRAGKRVTVGKGSAYDLHLTRALQHAEIVRAASSQAVVDTFLARRLDVAAGVKQQLQADARRVGGVRLLPGRFMVIRQAMGLPKARGDAAAACLDAFVESMKGNGFVAQALARHGLEHHHHHH | not soluble |
| MMISIFSLLASTAILVFANGQSNVKLEFVQAMWRHGERASQVDQYPIYEKDWIYGGGGLGELTAIGMGEMNELGWLIRKRYVTKLKFLTPKYASREVYFRSTNFNRTIISAQSLLYGLFPPSLYDVKNVDYPYSPLTWFPGFTFVPVHVDGPDQCAASQNCPCTRYDLLQGQMLTLPEVLPKYTQVVLLNRRVGGYYNMTSGLDSFTTYPDTWKCQRAYFNRTMYAKLPWYNEELYYQAQVTYAPVKGFLEGNFENPAVTSSGLDVGLEIKKVRSGVIINEVFNRANEKLNCAELGQNCTSYLNKLKFYGYSIHDNNVYGVLVALGIPQIANTLDGWPAYAAGIFMEFHRNTSTNERFFKVLYREGDDTPISDVTSQLPICNGATLCPLGALQTLAETLKPLPDITTLCKTPL | not soluble |
| MMIVKRFILGEYSTNTYLVVSGDEGILIDVAENPSEVIDYILTNNIKLKSIYATHGHFDHVLGVTEVKKYFNVPFFLHRSDLDLLRRDERTKGIVPDGFIDEKSIIKIGNEELKVIETPGHTMGSVCYIFDDGIFTGDTLFNGSIGRYDLGGDKNLLKKSLNRLMELNDGLTVYPGHGFFTTLGYEKLTNPFLNGEFEW | soluble |
| MMKNFVCTTCGVQYAASVEEPVSCHICDEERQYVNPKGQSWTTLENLQTDDTYKNEIIKEENGLYSITTKPGFAIGQTAFVVKTESYRLLWDCITYLDETTITKIKELGGLDAIALSHPHYYSTQVEWAETFDVPIYIHEDDKEWVMRPSSRIIYWSGESLQLADGITVHRLGGHFSGGSVLHWEEGNDGKGILLTGDIIQVVADERWVSFMYSYPNLIPLPARKVEEMVNRVKPLQFNRLYNAFHRVVKENANEAVERSAERYIKAIEGKLFHT | not soluble |
| MMKNMARKNQKAPWEEEEEIIWVSRTELKNDMLALQKLGEELVELKPSALAKFPLPEDLAEAIKDAQRFKNEARRRQLQYIGKLMRHIDPEPLQAALDKLRNKHSQTTALLHKLEQLRDRIVAEGDSAIEVAMEQYPEADRQRLRLLARQASKEKAGNKPPKSSREIFQLLKEAMLAKQEIEEESEDDLDSAE | not soluble |
| MMKQHLDALKDSKYCPLWHDQDIRPETLPALSADTSCELLIVGGGFTGLWGALQAKERQPDADIILIEKTTISDGASGRNGGFLSSSLAHGETNTDHQFPGEADKLHQLGQQNLKEFIETLEHYNIDARYEKVGETSVATDQASVDALRATYESEKAQGEDVVWFNQEEMQAQVNSPTYLAGLWYRGGQDGVVDPARLCWGLKRVILELGVRIYEETPLTSLKKLGQDKMEVTCSDVKIISDKVLMATNAYRNPIGQARRSIIPVWDYQIATQPLSQEQLDSIGWHKSRHALSNHANMFHYYRFTKDNRITWGGGGAVRYYFNNGIDQSYADIPERFAQLSEEFFETFPQLKGIKFTHRWSGIIATSTRFCVVPGVAYDGRVAWAIGYTGLGVGASRFGARIGIELLGYKPSEILDMQFVKKKPIPWAPEPLRWIGVYLTHKALEKADANGGKRGLWLKLLDMLNLGFTCLEHHHHHH | not soluble |
| MMKVLAFDTSSKALSVAVLNNMECLATVTINIKKNHSINLMPAIDFLMQSIDLEPQDLDRIVVAEGPGSYTGLRVAVATAKMLAYTLKIDLVGVSSLYALTNGFSENDLLVPLIDARRNNVYVGFYQNGDTVKPDCHTSLEEVLQEVGNKANVHFVGEVAAFFDQIKKALPHAKITETLPCAVAIGRKGQKMKSVNVDAFVPRYLKRVEAEENWLKNHCETNTEEYIKRVLEHHHHHH | not soluble |
| MMLENKSINELYSIKLIEEADTKRLIKFMNKYMNSKHEFEMSKRIFLSDQILNQECYNDINIRSSIYNFYEEYIVMEKEGKIAALIALDINRNNLSKVLNLNLIICEEGEMSRLRDMFIFATEILPEYSIVEPTKIRTYIRENGIFTEYWKNKLMEAGFSHEVTRENEVGNGVALTTMIIKMK | not soluble |
| MMLPKEIMMPNDNPYALHRVKVLKVYSLTETEKLFLFRFEDPELAEKWTFKPGQFVQLTIPGVGEVPISICSSPMRKGFFELCIRKAGRVTTVVHRLKPGDTVLVRGPYGNGFPVDEWEGMDLLLIAAGLGTAPLRSVFLYAMDNRWKYGNITFINTARYGKDLLFYKELEAMKDLAEAENVKIIQSVTRDPNWPGLKGRPQQFIVEANTNPKNTAVAICGPPRMYKSVFEALINYGYRPENIFVTLERRMKCGIGKCGHCNVGTSTSWKYICKDGPVFTYFDIVSTPGLLD | not soluble |
| MMMDLNIRRVVLDVDKGLNRPTLVELAAAIEKVQGVEAVNIIVTEMDMETMGTNITVEGTNINYDELIETIENTGSAIHSVDEIAVGKRLIENVRR | not soluble |
| MMNKDLSYCIVLSSEQLSYLAGSKYGIDRMKILNRLIEATVLEQTEYSKKGFAMTLQVGQAALSEVELSCKLGYDKKTISRVIDKMNQLGIVASVQSNRTSIHTQKCVSAWMLDGKRIDNPFYVRMKNRKDGNEKTANRPYNNSILPMKQQHILESNAEANCPTQTQTDNTAVSDETYSPDLSTSPTSSETPVTAYDDKNRNGYDELKAETNNHELLHTPTTTSGYEIAGNGSDNDAAQVNSTSAYPTTTLASPQPLAEEEPTNDQGNDWQL | not soluble |
| MMNKKEARTLIKERRMNLSKEYIDVASDKIFEKLLQNEDFKNVKTVMSYMDFKNEVKTDRINTFIKNSGKILVLPKVVDKETMIVIEDKNQYIVSPFGNKEPDGEEYKGSIDVIITPGVAFDRDKNRVGFGRGYYDRFFVKQPNAKKIAIAFEKQIIDEGIETDKYDKKVDILITEDEIIKLEHHHHHH | soluble |
| MMPKVYGSLVDNETRCTHYHTFLDVIAIKFKCCNKYYPCYQCHEEHETHPIKRWSEQEFDEKAIMCGVCKHEMSIQDYMMTELCPKCQAHFNSRCKFHYHLYFELLEHHHHHH | not soluble |
| MMQTSTSSRVRRYPYQITLSLVLKGFYSPSAPSYDFCLVLLPTLFLIDLMPIKFSLHVTIGIGEATPVPIFFFSAPWYFRSGNPLPHCVRAYRCKVNFPFFRLGWSTWLHY | soluble |
| MMRDSPSIQGTLDAATQHALLAGRHADPFSVLGPHQAGAHTVVRVLAPGARTVMAVLPGGQRTPLLPMQPGLFENTVPGLQPGAPAAYRLCIEWEGGIQHTADPYAFGPVLD | not soluble |
| MMSGAEEPVAIIFPQSASDGVEVLYQEFSFGRYFNQIAAGVLRGIVQTRQPRQPLRILEVGGGTGGTTAWLLPELNGVPALEYHFTDISALFTRRAQQKFADYDFVKYSELDLEKEAQSQGFQAQSYDLIVAANVIHATRHIGRTLDNLRPLLKPGGRLLMREITQPMRLFDFVFGPLVLPLQDLDAREGELFLTTAQWQQQCRHAGFSKVAWLPQDGSPT | not soluble |
| MMSNQTVYQFIAENQNELLQLWTDTLKELSEQESYQLTDQVYENISKEYIDILLLSVKDENAAESQISELALRAVQIGLSMKFLATALAEFWKRLYTKMNDKRLPDQESTELIWQIDRFFSPINTEIFNQYSISWE | soluble |
| MMTGLTLLSCSTENDEFKKELPPTEQPSEPTGALLERFSIDQLPAKTIYALGESIDLTGLKVTGEYDDGKQRSVNVAPKQISGFSSSVPVDKQEVTITIEGKQKSFTIQVAPVRVENGVLTEVLKGYDEIILPNSVKSIPKNAFNGSKINKVTLNEGLKSIGDMAFFNSTIQEVIFPSTLEQLEENIFYYCYHLKKADLSRTKLTKLPASTFVYAGVEEVLLPATLTEIDAQAFLKTSQLKTIEIPENVRTIGLEAFRESSITTVKLPNGVTNIAQRAFYYCPELTEVTTYGTVFNDDPEAMIHPYCLEGCPQLTRFEIPQSIRILGQGLLGGNRKVTQLTIPANVTQINFSAFNNTGIKEVKVEGITPPQVFEKIWYGFPDDITVIRVPAESVEKYKTAAGWQDYTNKIQASLEHHHHHH | soluble |
| MMTVLRSQIESILLVVDQPASVAALARATEAAPETVTSVLRSMAQEFEDRGSGIEVRESPEGWRLYTVKRNADVVEKFLLDGSHTKLSRAALETLAVVAYRQPATRAQVAAVRGVNVDGVMRTLQLRGLIREVAINPGTEGVNGSAHRYETTELFLDLLGIDSLERLPDLAPLLPDIDSIDEYF | not soluble |
| MMVVKVKMLYWVDEVGGRAESMEIELKPFGYRTAPITQWEVLIAAEDVEVEKGKPVIVRVEPVFLPGNTLVGPLSIMRHALGTLVDVVECGVPGRVEDEKCISRVLFLPVEDGVIKKGDMVGVLKVFYIKTGLLTRILGLEPPKVELKKGFHEANIVWRDNGNIYREPAKVTILGYMRSHIGVWELLVADETVRVKRGDVLRIRIKEVRLPPNTVVVPLPVMRNAFGTVLDVVQLGKPSRVEEEKTLHQAIFLAVEDGVIEEGDLIGVINVYYVGLGDFKPLVQDKPPQKVRIVYRSGDGIVKREVEVEPFGYRRSPVGKWEALIADESKPVRYGEPVVVKVKRVRVPPKTILYPLHIMRHAYGTVADVFCDCKPWKVEEGGEIKKVVFLPVMDGEIKEGELLGIINLHDVELSPLGRVRQWLDNWLTEMGRTFDEGDWPLWLEHHHHHH | soluble |
| MMYIYTYTDPFGKRRYTYSKDLVKLREKEQKLLKDQLDGLDVYAAGNANLNFVFDRYISTKTELRRTTYTNYMYMYDHYVRDSFGKKKIGEIKYSDVLYFYYHLINERKLQVNTLETIHTVLHPTFQLAVRDDIIRNNPSHGVMSEIKKKPGRNHGVRHALTVEQQRAFMNYTSNSPVFNHWAPLFTVLLGTGCRIGEIIGIRWEDIDLEKRLININHSVTYYPRRAETTKCEFAVSLPKTEAGIRTVPMMEPVYNAFMEEYEYQKENGFSTVTLDGMEGFIFTNRFGNLHNPQAVNRTIKRI | not soluble |
| MNAADRVMQSYGRCCASTGFFDDFYRHFLASSPQIRAKFATTDMTAQKHLLRAGIMNLVMYARGMSDSKLRALGASHSRAALDIRPELYDLWLDALLMAVAEHDRDCDAETRDAWRDVMGRGIAVIKSYY | soluble |
| MNAKEILVHSLRLLENGDARGWCDLFHPEGVLEFPYAPPGWKTRFEGRETIWAHMRLFPEHLTVRFTDVQFYETADPDLAIGEFHGDGVATVSGGKLAQDYISVLRTRDGQILLYRDFWNPLRHLEALGGVEAAAKIVQGA | soluble |

From the DeepSol protein solubility set
